Assay [1] deals with human PD-L1 on tumor cells (human) (UniProt Q9NZQ7). The experiment in a line: FACS staining of HCT116 cells with the control antibody; triplicates.
For assay [2] the target is unchanged. The experiment in a line: FACS staining of MDA-MB-231 cells with the control antibody; triplicates.

The values below come from patent US20240360217A1.

Chain of human PD-L1 on tumor cells (human) (Q9NZQ7 19-290 limits assumed): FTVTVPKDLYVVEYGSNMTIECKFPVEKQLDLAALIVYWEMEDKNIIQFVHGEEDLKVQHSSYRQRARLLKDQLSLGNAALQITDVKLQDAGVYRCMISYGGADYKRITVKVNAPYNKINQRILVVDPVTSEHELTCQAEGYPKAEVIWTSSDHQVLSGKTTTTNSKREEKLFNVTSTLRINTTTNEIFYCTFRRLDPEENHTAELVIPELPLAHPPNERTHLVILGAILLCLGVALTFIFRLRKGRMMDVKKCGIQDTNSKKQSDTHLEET

Regarding anti-PD-L1 RG7446 MPDL3280A (antibody), the PD-L1 (MFI) in assay [1] came to 10900 MFI; in assay [2], 74600 MFI.
